Values belong to the molecule of their own block, whether it stands above or below them.
Columns and labels:
[1] = molecular target: Hermes79-612 C519S (Musca domestica); experiment: crystal structure
[2] = molecular target: HermesΔ497-516 (Musca domestica)
[3] = molecular target: full-length Hermes expressed in Sf9 cells (Musca domestica); experiment: SEC
[4] = molecular target: full-length Hermes expressed in budding yeast (Musca domestica); experiment: SEC
SEC = molecular target: the molecule itself; experiment: SEC

stoichiometry N [1]: 8
Molecule: Hermes79-612 C519S (domain or fragment)

stoichiometry N [3]: 8
Molecule: full-length Hermes expressed in Sf9 cells (enzyme)

Second part, the molecule before the results:

Molecule: HermesΔ497-516 (enzyme)
stoichiometry N [2]: 2

Molecule: full-length Hermes expressed in budding yeast (enzyme)
stoichiometry N [4]: 8

B1: full-length Hermes transposase (E. coli-expressed) (enzyme, Musca domestica, UniProt Q25438 1-612, looked up)
chain: MQKMDNLEVKAKINQGLYKITPRHKGTSFIWNVLADIQKEDDTLVEGWVFCRKCEKVLKYTTRQTSNLCRHKCCASLKQSRELKTVSADCKKEAIEKCAQWVVRDCRPFSAVSGSGFIDMIKFFIKVKAEYGEHVNVEELLPSPITLSRKVTSDAKEKKALISREIKSAVEKDGASATIDLWTDNYIKRNFLGVTLHYHENNELRDLILGLKSLDFERSTAENIYKKLKAIFSQFNVEDLSSIKFVTDRGANVVKSLANNIRINCSSHLLSNVLENSFEETPELNMPILACKNIVKYFKKANLQHRLRSSLKSECPTRWNSTYTMLRSILDNWESVIQILSEAGETQRIVHINKSIIQTMVNILDGFERIFKELQTCSSPSLCFVVPSILKVKEICSPDVGDVADIAKLKVNIIKNVRIIWEENLSIWHYTAFFFYPPALHMQQEKVAQIKEFCLSKMEDLELINRMSSFNELSATQLNQSDSNSHNSIDLTSHSKDISTTSFFFPQLTQNNSREPPVCPSDEFEFYRKEIVILSEDFKVMEWWNLNSKKYPKLSKLALSLLSIPASSAASERTFSLAGNIITEKRNRIGQQTVDSLLFLNSFYKNFCKLDI
stoichiometry N (SEC): 8

Reference: PMC4105704 (Cell, 2014)
